Measurements taken from patent US20250340637A1 (ABPRO, published 2025).
Numbering of substitutions follows the chain as printed.

B1: ABP100s.1 (antibody, V domains shown)
VH: EVQLVESGGGLVQPGGSLRLSCAASGFTFNTYAMNWVRQAPGKGLEWVARIRSKYNNYATYYADSVKGRFTISRDDSQSSLYLQMNSLKTEDTAVYYCVRHGNFGNSYVSWFAYWGQGTLVTVSS
VL: QAVVTQEPSFSVSPGGTVTLTCGSSTGAVTTSNYANWVQQTPGQAFRGLIGGTNKRAPGVPDRFSGSLIGDKAALTITGAQADDESDYFCALWYSNLWVFGGGTKLTVL
B2: ABP100s.5.4 (antibody, V domains shown)
VH: B1 VH with R19K, G68D, Q78K, S79N, S80T, L81A
VL: QTVVTQEPSLTVSPGGTVTLTCRSSTGAVTTSNYANWVQQKPGQAFRGLIGGTNKRAPGVPARFSGSLLGGKAALTLSGVQPEDEAIYFCALWYSNLWVFGGGTKLTVL
B3: anti-HER2×CD3 BsAb comprising the anti-CD3 VH and VL sequences of ABP100s.10.0 (bispecific antibody, V domains shown)
VH 1: not shown
VL 1: not shown
VH 2: B1 VH with R19K, G44C, G68D, Q78K, S79N, S80T, L81A
VL 2: B2 VL with G102C
notes: Only the four variable domains are tied to the tested molecule; also called 10.0 clone; parental construct
B4: ABP100s.5.1 (antibody, V domains shown)
VH: B1 VH with R19K, G44C, G68D, Q78K, S79N, S80T, L81A
VL: B2 VL with G102C, T107E, V108I, L109K
B5: ABP100s.5.2 (antibody, V domains shown)
VH: B1 VH with R19K, G68D, Q78K, S79N, S80T, L81A, Q117C
VL: B2 VL with A45C, T107E, V108I, L109K
B6: ABP100s.4 (antibody, V domains shown)
VH: B1 VH with Q13K, S77A, Q78K, K89R, T90A
VL: B1 VL
B7: ABP100s.7 (antibody, V domains shown)
VH: B1 VH with R19K, P41S, G68D, Q78K, S79N, S80T, L81A
VL: B2 VL with T107E, V108I, L109K
B8: ABP100s.2 (antibody, V domains shown)
VH: B1 VH with Q78K
VL: B1 VL
B9: ABP100s.10.2 (antibody, V domains shown)
VH: B1 VH with R19K, G44C, G68D, Q78K, S79N, S80T, L81A
VL: B2 VL with G102C
B10: ABP100s.6 (antibody, V domains shown)
VH: B1 VH with R19K, G68D, Q78K, S79N, S80T, L81A
VL: B2 VL with I87E, T107E, V108I, L109K
B11: ABP100s.10.1 (antibody, V domains shown)
VH: B1 VH with R19K, G44C, G68D, Q78K, S79N, S80T, L81A
VL: B2 VL with G102C
B12: ABP100s.10.3 (antibody, V domains shown)
VH: B1 VH with R19K, G44C, G68D, Q78K, S79N, S80T, L81A
VL: B2 VL with G102C
B13: ABP100s.3 (antibody, V domains shown)
VH: B1 VH with Q13K, K89R, T90A
VL: B1 VL
B14: ABP100s.5 (antibody, V domains shown)
VH: B1 VH with R19K, G68D, Q78K, S79N, S80T, L81A
VL: B2 VL with T107E, V108I, L109K

Target: T1, HuCD3E (Homo sapiens, UniProt P07766 23-126, limits assumed)
T1 construct: Recombinant analyte in SPR and antigen in ELISA; also called human CD3; human CD3 epsilon
T1 sequence (P07766 23-126 limits assumed): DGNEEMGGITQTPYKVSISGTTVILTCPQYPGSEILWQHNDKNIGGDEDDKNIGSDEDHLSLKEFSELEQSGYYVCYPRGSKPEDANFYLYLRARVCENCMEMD
Assay: SPR, Biacore 8K; CD3 Affinity column: Hi

| Binder | Kd |
| --- | --- |
| B1 | < 10 nM |
| B2 | < 10 nM |
| B3 | < 10 nM |
| B4 | < 10 nM |
| B5 | < 10 nM |
| B6 | < 10 nM |
| B7 | < 10 nM |
| B8 | < 10 nM |
| B9 | < 10 nM |
| B10 | < 10 nM |
| B11 | < 10 nM |
| B12 | < 10 nM |
| B13 | < 10 nM |
| B14 | < 10 nM |
